According to paper PMC2696590:

Assays:
[1] = target: NTS1-7o, MBP and TrxA-H10 fusion (rat) (UniProt P20789); experiment: radioligand binding; saturation binding of 1 pM to 10 nM [^3H]-NT to intact E. coli cells expressing the receptor; TEBB buffer, no detergents, 2 hours on ice, GF/B filters; apparent KD, one-site with ligand depletion
[2] = target: NTS1-7l, MBP and TrxA-H10 fusion (rat) (UniProt P20789); experiment: as above
[^3H]-neurotensin = saturation binding assay on intact E. coli cells
SR142948 = experiment: competition binding assay against [3H]-NT on intact E. coli cells; conditions: 5 nM agonist [3H]-NT

wild-type NTS1 (N-terminally truncated rat neurotensin type I receptor starting at Thr43), MBP and TrxA-H10 fusion (from UniProt P20789) A86L; F358A, sequence (P20789 whole entry A86L/F358A, looked up, the tested form may be a part): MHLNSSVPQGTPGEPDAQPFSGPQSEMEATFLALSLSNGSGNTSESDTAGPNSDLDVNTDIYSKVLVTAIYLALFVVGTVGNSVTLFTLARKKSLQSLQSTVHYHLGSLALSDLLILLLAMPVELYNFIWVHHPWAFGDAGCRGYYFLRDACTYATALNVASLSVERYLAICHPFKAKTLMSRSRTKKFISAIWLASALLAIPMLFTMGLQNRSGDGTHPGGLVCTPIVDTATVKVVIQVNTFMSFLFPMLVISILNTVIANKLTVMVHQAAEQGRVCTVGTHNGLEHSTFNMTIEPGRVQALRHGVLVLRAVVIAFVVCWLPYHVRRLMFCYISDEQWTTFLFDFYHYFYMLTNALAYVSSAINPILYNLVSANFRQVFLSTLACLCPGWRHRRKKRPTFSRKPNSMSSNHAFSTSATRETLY
NTS1-7o, MBP and TrxA-H10 fusion (rat), sequence (P20789 43-424): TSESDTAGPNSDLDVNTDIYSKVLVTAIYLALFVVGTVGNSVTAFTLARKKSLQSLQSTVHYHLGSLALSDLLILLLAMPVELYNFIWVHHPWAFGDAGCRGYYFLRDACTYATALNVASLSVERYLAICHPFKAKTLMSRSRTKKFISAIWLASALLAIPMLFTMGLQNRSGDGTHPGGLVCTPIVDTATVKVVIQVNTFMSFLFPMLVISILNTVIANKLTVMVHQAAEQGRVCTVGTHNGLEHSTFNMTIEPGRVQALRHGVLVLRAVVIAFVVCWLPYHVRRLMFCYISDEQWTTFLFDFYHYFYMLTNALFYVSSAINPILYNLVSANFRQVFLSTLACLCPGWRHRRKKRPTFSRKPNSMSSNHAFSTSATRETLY
NTS1-7l, MBP and TrxA-H10 fusion (rat), sequence (P20789 43-424): as above
wild-type NTS1 (N-terminally truncated rat neurotensin type I receptor starting at Thr43), MBP and TrxA-H10 fusion (from UniProt P20789) NTS1-7l, sequence (P20789 whole entry, looked up, change not shown, the tested form may be a part): as the sequence (P20789 whole entry A86L/F358A, looked up, the tested form may be a part) above, with L86A, A358F counted along it
wild-type NTS1 (N-terminally truncated rat neurotensin type I receptor starting at Thr43), MBP and TrxA-H10 fusion (from UniProt P20789) NTS1-7f, sequence (P20789 whole entry, looked up, change not shown, the tested form may be a part): as the sequence (P20789 whole entry A86L/F358A, looked up, the tested form may be a part) above, with L86A, A358F counted along it
wild-type NTS1 (N-terminally truncated rat neurotensin type I receptor starting at Thr43), MBP and TrxA-H10 fusion (from UniProt P20789) NTS1-7o, sequence (P20789 whole entry, looked up, change not shown, the tested form may be a part): as the sequence (P20789 whole entry A86L/F358A, looked up, the tested form may be a part) above, with L86A, A358F counted along it
wild-type NTS1 (N-terminally truncated rat neurotensin type I receptor starting at Thr43), MBP and TrxA-H10 fusion (from UniProt P20789) NTS1-7e, sequence (P20789 whole entry, looked up, change not shown, the tested form may be a part): as the sequence (P20789 whole entry A86L/F358A, looked up, the tested form may be a part) above, with L86A, A358F counted along it
wild-type NTS1 (N-terminally truncated rat neurotensin type I receptor starting at Thr43), MBP and TrxA-H10 fusion (from UniProt P20789) NTS1-7g, sequence (P20789 whole entry, looked up, change not shown, the tested form may be a part): as the sequence (P20789 whole entry A86L/F358A, looked up, the tested form may be a part) above, with L86A, A358F counted along it
wild-type NTS1 (N-terminally truncated rat neurotensin type I receptor starting at Thr43), MBP and TrxA-H10 fusion (from UniProt P20789) A86L; I260A; F342A; F358A, sequence (P20789 whole entry A86L/I260A/F342A/F358A, looked up, the tested form may be a part): as the sequence (P20789 whole entry A86L/F358A, looked up, the tested form may be a part) above, with I260A, F342A counted along it

Row | Substance | Kd [1] [nM] | Kd [2] [nM] | Kd ([^3H]-neurotensin) [nM] | Ki (SR142948) [nM]
1 | [^3H]-neurotensin (peptide) | 0.03 | 0.22 | – | –
2 | wild-type NTS1 (N-terminally truncated rat neurotensin type I receptor starting at Thr43), MBP and TrxA-H10 fusion (from UniProt P20789) NTS1-7e | – | – | 0.14 | 0.91
3 | wild-type NTS1 (N-terminally truncated rat neurotensin type I receptor starting at Thr43), MBP and TrxA-H10 fusion (from UniProt P20789) NTS1-7l | – | – | – | 0.32
4 | wild-type NTS1 (N-terminally truncated rat neurotensin type I receptor starting at Thr43), MBP and TrxA-H10 fusion (from UniProt P20789) A86L; I260A; F342A; F358A | – | – | – | 1.2
5 | wild-type NTS1 (N-terminally truncated rat neurotensin type I receptor starting at Thr43), MBP and TrxA-H10 fusion (from UniProt P20789) NTS1-7o | – | – | – | 0.22
6 | wild-type NTS1 (N-terminally truncated rat neurotensin type I receptor starting at Thr43), MBP and TrxA-H10 fusion (from UniProt P20789) NTS1-7f | – | – | 0.04 | 0.73
7 | wild-type NTS1 (N-terminally truncated rat neurotensin type I receptor starting at Thr43), MBP and TrxA-H10 fusion (from UniProt P20789) A86L; F358A | – | – | – | 0.58
8 | wild-type NTS1 (N-terminally truncated rat neurotensin type I receptor starting at Thr43), MBP and TrxA-H10 fusion (from UniProt P20789) NTS1-7g | – | – | 0.21 | 2.8
